Results published in patent US20160362487A1 (Regeneron, published 2016).
Substitutions are numbered along the chain they refer to. Names may count otherwise.

T1: human IL-33 (R&D Systems, #3625-IL-010/CF) (human, UniProt O95760 112-270)
T1 sequence (looked up): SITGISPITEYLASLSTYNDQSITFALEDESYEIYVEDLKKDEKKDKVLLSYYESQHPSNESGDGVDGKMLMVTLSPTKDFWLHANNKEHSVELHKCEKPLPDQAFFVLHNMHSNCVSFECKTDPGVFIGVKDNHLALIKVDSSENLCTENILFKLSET

T2: cynomolgus monkey IL-33 expressed with a C-terminal hexahistidine tag (cynomolgus monkey)
T2 construct: also called MfIL-33-6His; Mf-IL-33-6His
T2 chain: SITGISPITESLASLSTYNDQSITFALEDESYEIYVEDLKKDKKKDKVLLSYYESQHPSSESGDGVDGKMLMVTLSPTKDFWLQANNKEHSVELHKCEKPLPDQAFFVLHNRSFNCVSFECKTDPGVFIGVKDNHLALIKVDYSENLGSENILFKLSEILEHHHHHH

B1: H4H9659P (antibody, human IgG4, V domains shown)
VH: QVQLVQSGAEVKKPGASVKVSCKASGYTFNSYGISWVRQAPGQGLEWMGWISSHNGNSHYVQKFQGRVSMTTDTSTSTAYMELRSLRSDDTAVYYCARHSYTTSWYGGFDYWGQGTLVTVSS
VL: DIQMTQSPSSVSASVGDRVTITCRASQGFSSWLAWYQQKPGKAPQLLIYAASSLQSGVPSRFSGSGSGSDFTLTISSLQPEDFATYYCQQANSFPLTFGGGTKVEIK
notes: Human IgG4 Fc (H4H)
B2: H4H9675P (antibody, human IgG4, V domains shown)
VH: EVQLVESGGNLEQPGGSLRLSCTASGFTFSRSAMNWVRRAPGKGLEWVSGISGSGGRTYYADSVKGRFTISRDNSKNTLYLQMNSLSAEDTAAYYCAKDSYTTSWYGGMDVWGHGTTVTVSS
VL: B1 VL with F29I, S30F, Q45K, S69T, T85I, F94V, L96I, G100Q, K103R, V104L
notes: Human IgG4 Fc (H4H)
B3: H4H9665P (antibody, human IgG4, V domains shown)
VH: EVQLVESGGGLVQPGGSLRLSCAASGFTFSNYAMTWVRQAPGKGLEWVSTISGSGDNTYYADSVQGRFTISRGHSKNTLYLQMNSLRAEDTAVYYCAKPTYSRSWYGAFDFWGQGTMVTVSS
VL: B1 VL with F29I, S53R, S63W, S69T, S93N, L96F, G100P, E105D
notes: Human IgG4 Fc (H4H)
B4: H4H9662P (antibody, V domains shown)
VH: EVQLVESGGGLVQPGGSLRLSCAASGFTFSSYALTWVRQAPGKGLEWVSFISGSGGRPFYADSVKGRFTISRDNSKNMLYLQMNSLRAEDTAIYYCAKSLYTTSWYGGFDSWGQGTLVTVSS
VL: B1 VL with F29V, S30V, Q45K, S69T, A91S, L96F, F98L, G100P, E105D
notes: Human IgG4 Fc (H4H)
B5: H4H9671P (antibody, human IgG4, V domains shown)
VH: EVQLVESGGGLVQPGGSLRLSCAASGFTLRSYFMTWVRQVPGKGLEGVSAISGISGGTYYTDSVKGRFTISRDNSKNTLFLQMNSLRAEDTAVYFCARTVYSSSYYGGFQHWGQGTLVTVSS
VL: B1 VL with A13V, F29I, Q45K, A50V, S69T, A91T
notes: Human IgG4 Fc (H4H)
B6: H1M9566N (antibody, mouse IgG1, V domains shown)
VH: EVQLLESGGDLVQPGGSLRLSCAASGFTFSSYAMSWVRQAPGKGLEWVSVISGSGSSTDYADSVKGRFTISRDNSRDTLHLQMNSLRAEDTAVYYCAKTFYYFYGLDVWGQGTTVTVSS
VL: DIQMTQSPSSLSASLRDRVTITCRASQGISNYLAWYQQKPGKVPKVLIYAASTLQSGVPSRFSGSGSGTVFTLTISSLQTEDVATYYCQKYSSAPFTFGPGTKVDIK
notes: Human variable domains, mouse IgG1 Fc (H1M)

What was measured:
[1] = target: T1, human IL-33 (R&D Systems, …); test: cell-based or functional assay
[2] = target: T1, human IL-33 (R&D Systems, …); test: SPR 37C, pH6.0 chase, mAb captured
Method: (§1) Equilibrium dissociation constants (KD values) for IL-33 binding to purified anti-IL-33 monoclonal antibodies were determined using a real-time surface plasmon resonance biosensor using a Biacore 4000 instrument. The Biacore sensor surface was first derivatized by amine coupling with either a polyclonal rabbit anti-mouse antibody (GE, # BR-1008-38) or with a monoclonal mouse anti-human Fc antibody (GE, # BR-1008-39) to capture anti-IL-33 monoclonal antibodies expressed with mouse or with human IgG4 constant regions, respectively. All Biacore binding studies were performed in 0.01M ADA pH 7.4, 0.15M NaCl, 3 mM EDTA, and 0.05% v/v Surfactant Tween-20 (ABS-ET running buffer). […] Association of either hIL-33 or MfIL-33-6His to the captured monoclonal antibody was monitored for 4 minutes and their dissociation in ABS-ET running buffer was monitored for 10 minutes. The effect of reduced pH on the binding of each anti-IL-33 antibody to either hIL-33 or MfIL-33-6His was studied using an in-line pH chase assay format in 0.01M ADA pH 6.0, 0.15M NaCl, 3 mM EDTA, and 0.05% v/v Surfactant Tween-20 (ABS-ET pH6 buffer). To achieve this, association of either hIL-33 or MfIL-33-6His to the captured monoclonal antibody was monitored for 4 minutes in ABS-ET running buffer. Following a 30 second dissociation of either hIL-33 or MfIL-33-6His in ABS-ET running buffer, ABS-ET pH6 buffer was injected for 3 minutes, and the analyte dissociation under the low-pH conditions was measured. All the binding kinetic experiments were performed at both 25° C. and 37° C. Kinetic association (kₐ) and dissociation (kd) constants were determined by fitting the real-time sensorgrams to a 1:1 binding model using Scrubber 2.0c curve fitting software. Binding dissociation equilibrium constants (KD) and dissociative half-lives (t½) were calculated from the kinetic rate constants as: […]

[3] = target: T2, cynomolgus monkey IL-33 expressed with …; test: SPR 37C, pH6.0 chase, mAb captured
Method: as §1

[4] = target: T1, human IL-33 (R&D Systems, …); test: cell-based or functional assay; remark: listed apart in the source
[5] = target: T3, pre-formed complex of hIL-33 and captured hST2-MMH (human, UniProt O95760 112-270); test: SPR Biacore T-200, 25C
T3 construct: Ligand-receptor complex on the sensor: hST2-MMH captured by anti-myc mAb and saturated with 100 nM hIL-33; also called hIL-33 pre-complexed with hST2-MMH
Method: The ability of anti-IL-33 antibodies to bind to a pre-formed complex of IL-33 with ST2 was tested using Biacore T-200 instrument equipped with a real-time surface plasmon resonance biosensor. The experiment was performed at 25° C. with a running buffer composed of 0.01M HEPES pH 7.4, 0.15M NaCl, 3 mM EDTA, and 0.05% v/v Surfactant Tween-20 (HBS-ET). […] The captured hST2-MMH surface was then saturated by injecting 100 nM of human IL-33 (hIL-33; R&D Systems, #3625-IL-010/CF) for 3 minutes followed by a 3 minute injection of a 100 nM solution of the anti-IL-33 monoclonal antibody. The real-time binding response was monitored during the entire course of the experiment, and the observed binding response at 3 minutes after injection of anti-IL-33 antibody to the pre-formed complex of hIL-33 and captured hST2-MMH was recorded and tabulated and shown in Table 7. No non-specific binding of anti-IL-33 monoclonal antibody to the anti-myc tag capture surface was observed.

[6] = target: T1, human IL-33 (R&D Systems, …); test: SPR 25C pH7.4, mAb captured; no dissociation seen, kd fixed
Method: as §1, with “The effect of reduced pH on the binding of each anti-IL-33 antibody to either hIL-33 or MfIL-33-6His was studied using an in-line pH chase assay format in 0.01M ADA pH 6.0, 0.15M NaCl, 3 mM EDTA, and 0.05% v/v Surfactant Tween-20 (ABS-ET pH6 buffer).” left out, “All the binding kinetic experiments were performed at both 25° C. and 37° C. Kinetic association (kₐ) and dissociation (kd) constants were determined by fitting the real-time sensorgrams to a 1:1 binding model using Scrubber 2.0c curve fitting software.” left out

[7] = target: T1, human IL-33 (R&D Systems, …); test: SPR 25C pH7.4, mAb captured; upper limit, kd fixed
Method: as §1, with “The effect of reduced pH on the binding of each anti-IL-33 antibody to either hIL-33 or MfIL-33-6His was studied using an in-line pH chase assay format in 0.01M ADA pH 6.0, 0.15M NaCl, 3 mM EDTA, and 0.05% v/v Surfactant Tween-20 (ABS-ET pH6 buffer).” left out, “All the binding kinetic experiments were performed at both 25° C. and 37° C. Kinetic association (kₐ) and dissociation (kd) constants were determined by fitting the real-time sensorgrams to a 1:1 binding model using Scrubber 2.0c curve fitting software.” left out

[8] = target: T1, human IL-33 (R&D Systems, …); test: SPR 25C pH7.4, mAb captured; lower limit, kd fixed
Method: as §1, with “The effect of reduced pH on the binding of each anti-IL-33 antibody to either hIL-33 or MfIL-33-6His was studied using an in-line pH chase assay format in 0.01M ADA pH 6.0, 0.15M NaCl, 3 mM EDTA, and 0.05% v/v Surfactant Tween-20 (ABS-ET pH6 buffer).” left out, “All the binding kinetic experiments were performed at both 25° C. and 37° C. Kinetic association (kₐ) and dissociation (kd) constants were determined by fitting the real-time sensorgrams to a 1:1 binding model using Scrubber 2.0c curve fitting software.” left out

Row | Binder | IC50, blocking of human basophil degranulation induced by 100 pM human IL-33, donor 655687 [1] | IC50, blocking of human basophil degranulation induced by 100 pM human IL-33, donor 655688 [1] | koff [2] | t½ [2] | t½ Ratio (pH 7.4/pH 6.0) [2] | koff [3] | t½ [3] | t½ Ratio (pH 7.4/pH 6.0) [3] | IC50, blocking of IFN-γ release from human PBMC induced by 260 pM hIL-33, donor #603486 [4] | IC50, blocking of IFN-γ release from human PBMC induced by 260 pM hIL-33, donor #603487 [4] | binding result [5] | koff [6] | Kd [7] | t½ [8]
1 | B1 | 5.79e-10 M | 4.47e-10 M | 0.00299 s⁻¹ | 4 min | 7.4 | 0.00102 s⁻¹ | 11 min | 0.5 | 1.25e-09 M | 2.71e-09 M | – | – | – | –
2 | B2 | 1.33e-10 M | 9.71e-11 M | 0.00463 s⁻¹ | 2 min | 5.3 | 0.00735 s⁻¹ | 1.6 min | 1.5 | 1.75e-10 M | 4.71e-10 M | – | – | – | –
3 | B3 | – | – | 0.00965 s⁻¹ | 1 min | 6.7 | 0.004 s⁻¹ | 2.9 min | 1.9 | 1.04e-08 M | 2.34e-08 M | no binding (tested: 100 nM) | – | – | –
4 | B4 | – | – | 0.00383 s⁻¹ | 3 min | 6.2 | 0.00168 s⁻¹ | 7 min | 1.1 | 9.64e-10 M | 3.02e-09 M | no binding (tested: 100 nM) | – | – | –
5 | B5 | – | – | 0.00585 s⁻¹ | 2 min | 5.1 | 0.00819 s⁻¹ | 1.4 min | 1.3 | 2.97e-09 M | 8.62e-09 M | – | – | – | –
6 | B6 | – | – | 0.000967 s⁻¹ | 12 min | 3.4 | 0.00115 s⁻¹ | 10 min | 2.9 | – | – | – | ≤ 1e-05 s⁻¹ | ≤ 0.0788 nM | ≥ 1160 min
